From patent publication US20260083853A1, “CD70 ANTIBODY DRUG CONJUGATES AND METHODS OF USING THE SAME” (Genmab A/S, priority 2022, published 2026)

B1: 2E7 antibody (antibody, human IgG1, kappa, V domains shown)
VH: QVQLQESGPGLVKPSETLSLTCTVSGGSVSSDYYYWSWIRQPPGKGLEWLGYIYYSGSTNYNPSLKSRVTISVDTSKNQFSLKLRSVTTADTAVYYCARGDGDFLGVCFDYWGQGTLVTVSS
VL: EIVLTQSPATLSLSPGERATLSCRASQSVSSYLAWYQQKPGQAPRLLIFDASNRATGIPARFSGSGSGTDFTLTISSLEPEDFAVYYCQQRSNWPLTFGGGTKVEIKR
notes: Made in ExpiCHO-S cells and purified on Protein A; also called Ab 2E7; parental mAb (2E7)
B2: 1H8: anti-CD70 clone with "at least two more amino acid substitutions in HCDR3/LCDR3" "compared with the parent antibody 69A7" (antibody, V domains shown)
VH: QVQLQESGPGLVKPSETLSLTCTVSGGSVSSDYYYWSWIRQPPGKGLEWLGYIYYSGSTNYNPSLKSRVTISVDTSKNQFSLKLRSVTTADTAVYYCARGDGDFMGVCFDYWGQGTLVTVSS
VL: EIVLTQSPATLSLSPGERATLSCRASQSVSSYLAWYQQKPGQAPRLLIFDASNRATGIPARFSGSGSGTDFTLTISSLEPEDFAVYYCQQRSNWPLTFGGGTKVEIK
B3: 2A4: anti-CD70 clone with "at least two more amino acid substitutions in HCDR3/LCDR3" "compared with the parent antibody 69A7" (antibody, V domains shown)
VH: QVQLQESGPGLVKPSETLSLTCTVSGGSVSSDYYYWSWIRQPPGKGLEWLGYIYYSGSTNYNPSLKSRVTISVDTSKNQFSLKLRSVTTADTAVYYCARGDGDYGGNVFPYWGQGTLVTVSS
VL: EIVLTQSPATLSLSPGERATLSCRASQSVSSYLAWYQQKPGQAPRLLIFDASNRATGIPARFSGSGSGTDFTLTISSLEPEDFAVYYCQQRSNWPLTFGGGTKVEIK
B4: 2D2: anti-CD70 clone with "at least two more amino acid substitutions in HCDR3/LCDR3" "compared with the parent antibody 69A7" (antibody, V domains shown)
VH: QVQLQESGPGLVKPSETLSLTCTVSGGSVSSDYYYWSWIRQPPGKGLEWLGYIYYSGSTNYNPSLKSRVTISVDTSKNQFSLKLRSVTTADTAVYYCARGDGDYGGNCFDYWGQGTLVTVSS
VL: EIVLTQSPATLSLSPGERATLSCRASQSVSSYLAWYQQKPGQAPRLLIFDASNRATGIPARFSGSGSGTDFTLTISSLEPEDFAVYYCQQRLKFPLTFGGGTKVEIK
B5: 2E7-LD038 conjugate (antibody, human IgG1, kappa, DAR 8, V domains shown)
VH: QVQLQESGPGLVKPSETLSLTCTVSGGSVSSDYYYWSWIRQPPGKGLEWLGYIYYSGSTNYNPSLKSRVTISVDTSKNQFSLKLRSVTTADTAVYYCARGDGDFLGVCFDYWGQGTLVTVSS
VL: EIVLTQSPATLSLSPGERATLSCRASQSVSSYLAWYQQKPGQAPRLLIFDASNRATGIPARFSGSGSGTDFTLTISSLEPEDFAVYYCQQRSNWPLTFGGGTKVEIKR
modifications: Drug-Linker LD038 (PB038; PEG unit, cleavable linker, exatecan) attached to cysteines after TCEP reduction; DAR8 for the whole antibody; residues not stated
notes: The constant regions are tied to 2E7 by claim 120; also called PA038; ADC PA038

Experiments:
[1] = target: T1, Recombinant mouse CD70 extra-cellular domain (ECD) linked to His tag (mouse, UniProt O55237 45-195); test: BLI (Octet RED), antibody on anti-human IgG Fc tips, CD70 ECD-His in solution 200 to 3.13 nM
T1 construct: extracellular domain; Purchased or made in house; not shown: His tag
T1 sequence (looked up): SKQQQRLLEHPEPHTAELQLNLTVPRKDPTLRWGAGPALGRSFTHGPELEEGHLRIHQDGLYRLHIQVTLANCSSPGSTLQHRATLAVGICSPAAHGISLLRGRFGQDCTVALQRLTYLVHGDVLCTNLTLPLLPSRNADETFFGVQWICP
Description: (§1) Recombinant proteins consisting of the CD70 extra-cellular domain (ECD) linked to His tag were either purchased (from KACTUS or ACRO biosystems) or synthesized in house. 2E7 antibody or 2E7-LD038 conjugate (20 nM) was immobilized on anti-human IgG Fc biosensor tips (Fortebio). Binding assays using varying concentration from 200 nM down to 3.13 nM of recombinant protein in solution were performed using Octet RED (Fortebio). Association time was set at 180 seconds and dissociation time was set at 300 seconds. Binding affinity was calculated using ForteBio Data Acquisition 6.3 software (ForteBio). Affinity was derived by fitting the kinetic data to a 1:1 Langmuir binding model utilizing global fitting algorithms.

[2] = target: T2, Human CD70 on CD70-expressing human tumor cell lines (Raji, 786-O, Caki-1) (human, UniProt P32970 1-193); test: flow cytometry blocking assay on Caki-1 cells; blocked ligand: biotinylated human CD27 at 30 ug/ml, detection with PE-conjugated streptavidin
T2 construct: whole, on cells; Endogenous CD70 on the cells; also called human CD70-expressing cell lines; CD70-positive cell lines 786-O, Raji and Caki-1
T2 sequence (looked up): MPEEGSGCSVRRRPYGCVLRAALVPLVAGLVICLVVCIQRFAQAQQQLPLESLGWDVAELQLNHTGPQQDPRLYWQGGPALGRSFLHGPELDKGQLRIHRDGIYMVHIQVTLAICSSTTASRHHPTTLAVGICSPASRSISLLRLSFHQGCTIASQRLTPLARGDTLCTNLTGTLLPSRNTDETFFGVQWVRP
Description: (§2) CD70-positive cell lines 786-O, Raji and Caki-1 were mixed with varying concentrations from 333.5 nM down to 6 nM of 2E7-LD038 conjugate, or 2E7 antibody, or negative binding control (B12), and incubated at 4° C. for 30 minutes. Cells were washed twice with PBS and then incubated with 30 µg/ml biotinylated human CD27 (the receptor for CD70) at 4° C. Staining was done using PE-conjugated streptavidin for 30 minutes and fluorescence was measured using flow cytometer.

[3] = target: T2, Human CD70 on CD70-expressing human …; test: flow cytometry blocking assay on 786-O cells; blocked ligand: biotinylated human CD27 at 30 ug/ml, detection with PE-conjugated streptavidin
Description: as §2

[4] = target: T2, Human CD70 on CD70-expressing human …; test: flow cytometry on Caki-1 cells, detection with PE-conjugated anti-human Fc, MFI(PE)
Description: (§3) The binding activity of 2E7 antibody or 2E7-LD038 ADC was evaluated by Flow cytometric analysis (Beckman, Cytoflex) with target-expressing cell lines, Raji, 786-O, Caki-1, and a cell line with negligible CD70 expression, MCF-7. 3×10⁵ cells were seeded per well at 96-well v-bottomed plate and incubated with 100 μl of 2E7 or 2E7-LD038 in serial dilutions. After 30 minutes of incubation at 4° C., cells were washed twice with PBS, stained with 100 μl of 1:200 diluted PE-conjugated anti human Fc in FACS buffer (1×PBS containing 1% BSA) and then incubated at 4° C. for 30 minutes. After that the cells were washed 2 times with PBS and analyzed by Flow cytometric analysis.

[5] = target: T2, Human CD70 on CD70-expressing human …; test: flow cytometry blocking assay on Raji cells; blocked ligand: biotinylated human CD27 at 30 ug/ml, detection with PE-conjugated streptavidin
Description: as §2

[6] = target: T2, Human CD70 on CD70-expressing human …; test: flow cytometry on Raji cells, detection with PE-conjugated anti-human Fc, MFI(PE)
Description: as §3

[7] = target: T3, Recombinant cynomolgus monkey CD70 extra-cellular domain (ECD) linked to His tag (cynomolgus monkey, UniProt A0A2K5WTU9 39-190); test: BLI (Octet RED), antibody on anti-human IgG Fc tips, CD70 ECD-His in solution 200 to 3.13 nM, 1:1 global fit
T3 construct: extracellular domain; Purchased or made in house; also called Cyno CD70; not shown: His tag
T3 sequence: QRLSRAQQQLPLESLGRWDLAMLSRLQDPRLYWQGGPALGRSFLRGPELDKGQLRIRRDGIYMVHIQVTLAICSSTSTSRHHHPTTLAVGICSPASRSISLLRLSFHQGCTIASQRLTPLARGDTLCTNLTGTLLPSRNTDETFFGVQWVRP
Description: as §1

[8] = target: T4, Recombinant human CD70 extra-cellular domain (ECD) linked to His tag (human, UniProt P32970 39-193); test: as above
T4 construct: extracellular domain; Purchased (KACTUS or ACRO biosystems) or made in house; also called human CD70 protein; not shown: His tag
T4 sequence (looked up): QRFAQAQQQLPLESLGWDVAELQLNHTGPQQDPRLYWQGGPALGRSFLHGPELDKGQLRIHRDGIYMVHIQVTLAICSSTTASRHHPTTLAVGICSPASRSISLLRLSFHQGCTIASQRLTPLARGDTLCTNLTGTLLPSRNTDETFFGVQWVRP
Description: as §1

[9] = target: T2, Human CD70 on CD70-expressing human …; test: flow cytometry on 786-O cells, detection with PE-conjugated anti-human Fc, MFI(PE)
Description: as §3

[10] = Hydrophobic interaction chromatography (HIC) of anti-CD70 antibodies; assay type: physicochemical; settings: for Retention time (hydrophobicity): TSK gel Butyl-NPR
Description: Antibodies were purified from cleared cell culture supernatants using Protein A chromatography (Protein A resin slurry, 4.5 mL, Bogen, Cat #18-0010-02). Briefly, supernatants were prepared for affinity chromatography and loaded onto the columns and allowed to flow completely through the resin. The columns were washed with binding buffer containing 0.15M NaCl and 0.2M PB, PH7.0. Antibody was eluted with elution buffer containing 0.15M NaCl, 0.1M Glycine and 0.2M PB, PH 3.0. Fractions were collected and neutralized by the addition of 1/10 volume of 1M Tris, PH9.0. The fractions were dialyzed for 2 hours against 1×PBS. Purified antibody was quantified by absorbance at A280. Samples from each step of the protein A chromatography were applied onto 12% SDS-PAGE gels for reduced and non-reduced electrophoresis. The hydrophobicity was assessed with hydrophobic interaction chromatography (HIC) on a TSK gel Butyl-NPR, 4.6×100 mm with Butyl-NPR (Tosoh corporation) using a Waters HPLC 2695 system.

[11] = target: T3, Recombinant cynomolgus monkey CD70 …; test: BLI (Octet RED), conjugate on anti-human IgG Fc tips, CD70 ECD-His in solution 200 to 3.13 nM, 1:1 global fit
Description: as §1

[12] = target: T4, Recombinant human CD70 extra-cellular …; test: as above
Description: as §1

[13] = target: T1, Recombinant mouse CD70 extra-cellular …; test: BLI (Octet RED), conjugate on anti-human IgG Fc tips, CD70 ECD-His in solution 200 to 3.13 nM
Description: as §1

Molecule | IC50 [2] | IC50 [3] | EC50 [4] | IC50 [5] | EC50 [6] | EC50 [9] | Retention time (hydrophobicity) [10] | also measured
B1 | 7.04 nM | 6.24 nM | 1.59 nM | 8.78 nM | 19.9 nM | 2.81 nM | – | binding result [1]: no binding (tested: 200 nM); Kd [7]: 0.39 nM; koff [7]: 0.000241 s⁻¹; kon [7]: 618000 M⁻¹ s⁻¹; Kd [8]: 0.807 nM; koff [8]: 0.000254 s⁻¹; kon [8]: 314000 M⁻¹ s⁻¹
B2 | – | – | – | – | – | – | 10.24 min | hydrophobicity compared with parent antibody 69A7 [10]: slightly more hydrophobic than the parent antibody
B3 | – | – | – | – | – | – | 9.06 min | –
B4 | – | – | – | – | – | – | 8.81 min | –
B5 | 8.03 nM | 7.35 nM | 1.45 nM | 11.6 nM | 26.4 nM | 2.16 nM | – | Kd [11]: 0.144 nM; koff [11]: 9.4e-05 s⁻¹; kon [11]: 652000 M⁻¹ s⁻¹; Kd [12]: 0.12 nM; koff [12]: 5.45e-05 s⁻¹; kon [12]: 456000 M⁻¹ s⁻¹; binding result [13]: no binding (tested: 200 nM)
